The assay deals with MCAM (CD146), melanoma cell adhesion molecule (human (endogenous in HUVECs), UniProt P43121 24-646). Description: cell-based or functional assay.

B1: Peanut agglutinin (PNA), agarose-conjugated (natural protein, Arachis hypogaea, UniProt P02872 24-273, looked up)
chain: AETVSFNFNSFSEGNPAINFQGDVTVLSNGNIQLTNLNKVNSVGRVLYAMPVRIWSSATGNVASFLTSFSFEMKDIKDYDPADGIIFFIAPEDTQIPAGSIGGGTLGVSDTKGAGHFVGVEFDTYSNSEYNDPPTDHVGIDVNSVDSVKTVPWNSVSGAVVKVTVIYDSSTKTLSVAVTNDNGDITTIAQVVDLKAKLPERVKFGFSASGSLGGRQIHLIRSWSFTSTLITTTRRSIDNNEKKIMNMASA
Regarding B1, the “IL-6 secretion from HUVECs by ELISA, dose series of PNA, highest after 24 h with 8 μg/ml PNA” value was 3 fold and the “MCP-1 secretion from HUVECs by ELISA, dose series of PNA, highest after 24 h with 8 μg/ml PNA” value is 13 fold.

These data come from PMC8643467, “Appearance of peanut agglutinin in the blood circulation after peanut ingestion promotes endothelial secretion of metastasis-promoting cytokines” (Carcinogenesis, 2021).
